{"source": "patent US11274129B2", "about": "“Methods for protein tyrosine phosphorylation profiling with variant SH2 domains” (priority 2016, dated 2022)", "molecules": {"B1": {"name": "QuadM-TrM tandem Superbinder: QuadM human Src Superbinder in tandem with the TrM human Src Superbinder in a single protein (protein)", "chain": "DSIQAEEWYFGKITRRESERLLLNAENPRGTFLVRESETVKGAYALSVSDFDNAKGLNVRHYLIRKLDSGGFYIWSRTQFNSLQQLVAYYSKHADGLSHRLTTVSPTSKGGSGGSMDSIQAEEWYFGKITRRESERLLLNAENPRGTFLVRESETVKGAYALSVSDFDNAKGLNVRHYLIRKLDSGGFYITSRTQFNSLQQLVAYYSKHADGLSHRLTTVSPTSK", "modifications": "SH2 protein domain; QuadM-TrM human Src SH2 tandem domain"}}, "test_system": "mixture of 40 different pTyr-including peptides derived from ITRMs", "assay": "Capture of pTyr-including peptides from a mixture of ITRM peptides by QuadM-TrM tandem Superbinder versus TrM human Src SH2 Superbinder, scheduled PRM", "assay_type": "binding", "details": "for (QT-TrM)/mean: QuadM-TrM tandem vs TrM human Src SH2 Superbinder, PRM peak area", "from_the_text": "A QuadM-TrM tandem Superbinder (SEQ ID NO: 15) was produced in E. Coli by expressing a recombinant DNA that contained the gene encoding the QuadM human Src Superbinder (SEQ ID NO: 12) in tandem with the gene encoding the TrM human Src Superbinder (SEQ ID NO: 5). Equal molar amounts (200 pmole) of the QuadM-TrM tandem Superbinder and the TrM human Src SH2 Superbinder were used to capture pTyr-including peptides from a mixture of 40 different pTyr-including peptides (200 fmole each) derived from ITRMs. The isolated peptides were identified by scheduled PRM and quantified based on the corresponding MS peak area.\nShown are the relative preferences of each pTyr-including peptide for the QuadM-TrM tandem Superbinder versus the TrM human Src SH2 Superbinder, as defined by the value of “(QT-TrM)/Mean”, where “QT” represents the amount of pTyr-including peptide captured by the QuadM-TrM tandem Superbinder, “TrM” represents the amount of pTyr-including peptide captured by the TrM human Src SH2 Superbinder, and “Mean” represents the mean amount of pTyr-including peptide captured by both the QuadM-TrM tandem Superbinder and the TrM human Src SH2 Superbinder. Yellow and blue shaded boxes indicate hydrophobic and hydrophilic residues, respectively, at the pTyr+3 position in the sequence of the pTyr-including peptide."}
{"molecule": "B1", "values": [{"measurement": "capture of pTyr-including peptides relative to the TrM human Src Superbinder", "setting": "200 pmole Superbinder, 200 fmole each peptide", "value": "improved capture of pTyr-including peptides"}, {"measurement": "(QT-TrM)/mean", "setting": "peptide ARFGAP2_pY445 EVDAEpYEAR", "value": 0.3}, {"measurement": "(QT-TrM)/mean", "setting": "peptide ARHGAP15_pY219 SSSTELLSHpYDSDIK", "value": 0.3}, {"measurement": "(QT-TrM)/mean", "setting": "peptide ARHGEF6_pY644 KPSEEEpYVIR", "value": 1.2}, {"measurement": "(QT-TrM)/mean", "setting": "peptide ARID1A_pY229 SAYPPPAPApYALSSPR", "value": 0.3}, {"measurement": "(QT-TrM)/mean", "setting": "peptide ASNS_pY216 DVPLHALpYDNVEK", "value": 0.3}, {"measurement": "(QT-TrM)/mean", "setting": "peptide C9orf78_pY277 ATDDpYHYEK", "value": 0.6}, {"measurement": "(QT-TrM)/mean", "setting": "peptide CD3D_pY160 DDAQpYSHLGGNWAR", "value": 0.3}, {"measurement": "(QT-TrM)/mean", "setting": "peptide CD3E_pY188 ERPPPVPNPDpYEPIR", "value": 0.5}, {"measurement": "(QT-TrM)/mean", "setting": "peptide CD3E_pY199 DLpYSGLNQR", "value": 0.0}, {"measurement": "(QT-TrM)/mean", "setting": "peptide CD3G_pY160 QTLLPNDQLpYQPLK", "value": 0.2}, {"measurement": "(QT-TrM)/mean", "setting": "peptide CD3G_pY171 EDDQpYSHLQGNQLR", "value": 0.0}, {"measurement": "(QT-TrM)/mean", "setting": "peptide CD28_pY206/209 HpYQPpYAPPR", "value": 0.3}, {"measurement": "(QT-TrM)/mean", "setting": "peptide CD28_pY218 DFAApYR", "value": 1.3}, {"measurement": "(QT-TrM)/mean", "setting": "peptide CD84_pY296 IpYDEILQSK", "value": "−0.1"}, {"measurement": "(QT-TrM)/mean", "setting": "peptide CD84_pY316 EEPVNTVpYSEVQFADK", "value": 0.1}, {"measurement": "(QT-TrM)/mean", "setting": "peptide CD247_pY72 SADAPAYQQGQNQLpYNELNLGR", "value": 1.5}, {"measurement": "(QT-TrM)/mean", "setting": "peptide CD247_pY111 NPQEGLpYNELQK", "value": 0.0}, {"measurement": "(QT-TrM)/mean", "setting": "peptide CD247_pY142 GHDGLpYQGLSTATK", "value": 0.4}, {"measurement": "(QT-TrM)/mean", "setting": "peptide CLPTM1L_pY527 VNEFGESpYEEK", "value": 0.3}, {"measurement": "(QT-TrM)/mean", "setting": "peptide DBN1_pY34 ALpYTYEDGSDDLK", "value": 0.0}, {"measurement": "(QT-TrM)/mean", "setting": "peptide EXOC4_pY51 LEEApYEK", "value": 0.5}, {"measurement": "(QT-TrM)/mean", "setting": "peptide HCLS1_pY175 AALGpYDYK", "value": 0.3}, {"measurement": "(QT-TrM)/mean", "setting": "peptide ITK_pY512 FVLDDQpYTSSTGTK", "value": 1.0}, {"measurement": "(QT-TrM)/mean", "setting": "peptide LAT_pY110 DSDGANSVASpYENEGASGlR", "value": "−0.2"}, {"measurement": "(QT-TrM)/mean", "setting": "peptide LAT_pY220 EpYVNVSQELHPGAAK", "value": 0.2}, {"measurement": "(QT-TrM)/mean", "setting": "peptide LCP1_pY300 AYpYHLLEQVAPK", "value": 0.4}, {"measurement": "(QT-TrM)/mean", "setting": "peptide LIMD2_pY102 GNpYDEGFGR", "value": 0.0}, {"measurement": "(QT-TrM)/mean", "setting": "peptide PJA2_pY28 AVWPKPAGGpYQTITGR", "value": 0.4}, {"measurement": "(QT-TrM)/mean", "setting": "peptide PLCG2_pY1245 EFSVNENQLQLpYQEK", "value": 1.2}, {"measurement": "(QT-TrM)/mean", "setting": "peptide PTPN7_pY149 AQSQEDGDpYINANYIR", "value": 0.0}, {"measurement": "(QT-TrM)/mean", "setting": "peptide RBMX_pY335 SDLpYSSGR", "value": 0.6}, {"measurement": "(QT-TrM)/mean", "setting": "peptide RFTN1_pY20 RPGNIpYSTLK", "value": 0.3}, {"measurement": "(QT-TrM)/mean", "setting": "peptide SIT1_pY148 pYSEVVLDSEPK", "value": "−0.2"}, {"measurement": "(QT-TrM)/mean", "setting": "peptide SPEN_pY1399 ASALpYESSR", "value": "−0.1"}, {"measurement": "(QT-TrM)/mean", "setting": "peptide THUMPD1_pY22 AQpYVLAK", "value": "−0.2"}, {"measurement": "(QT-TrM)/mean", "setting": "peptide TLR7_pY1041 NALATDNHVApYSQVFK", "value": 0.1}, {"measurement": "(QT-TrM)/mean", "setting": "peptide TRAF3IP3_pY178/179 GQQIpYpYHK", "value": 0.9}, {"measurement": "(QT-TrM)/mean", "setting": "peptide TRAF3IP3_pY179 GQQIYpYHK", "value": 1.5}, {"measurement": "(QT-TrM)/mean", "setting": "peptide ZAP70_pY164 MPWpYHSSLTR", "value": 0.2}, {"measurement": "(QT-TrM)/mean", "setting": "peptide ZAP70_pY292 IDTLNSDGpYTPEPAR", "value": 0.3}]}
